From patent US10052415B2, “Tropoelastin for promoting endothelial cell adhesion or migration” (University of Utah Research Foundation, priority 2005, dated 2018)
Entries after “also recorded” stand apart in the source; their conditions may differ.

Assays:
CHO cells = assay: Cell adhesion assay on coated culture plates, CHO cells; format: cell-based; settings: culture plates coated with 10 ug/ml protein; 0.1% BSA control
Protocol: Cells were plated on culture plates coated with either 0.1% BSA (as a control), 10 ug/ml fibronectin (FN), or 10 ug/ml recombinant tropoelastin, and assayed for adherence to the coated substrate.
96-well plates were coated in duplicate overnight at 4° C. with 10 μg/ml collagen, fibronectin, tropoelastin, or 0.1% bovine serum albumin (BSA). Cells were harvested with 0.25% trypsin/1 mM EDTA, washed three times in adhesion buffer (0.5% BSA in basal medium), suspended at a working density of 5×10^5/ml in adhesion buffer, and then allowed to recover for 1 h at 37° C. (5% CO2). For integrin-blocking assays, 25 μg/ml anti-integrin antibodies (Chemicon, Temecula, Calif.) or control IgG (Jackson ImmunoResearch Laboratories, Inc, West Grove, Pa.) were added to the cell suspension during the recovery period. During the cell recovery, the coated 96-well plates were washed twice in dPBS and blocked for 1 h at 25° C. in 5.0% BSA (dPBS). The blocking solution was removed, and the wells were washed twice in dPBS. Recovered cells were added to the coated wells in a volume of 100 μl per well and placed at 37° C. for 30 minutes (5% CO2). […] Readings represent the number of adherent cells/well (average six high powered 100× fields, three taken from each of two separate wells).

[1] = system: human aortic endothelial cells (HuAEC); assay: Boyden chamber migration assay, HuAEC; format: cell-based; settings: FIG. 3
Protocol: Migration of HuAECs to BSA, fibronectin, and recombinant tropoelastin was measured.
We assayed the hexamer VGVAPG (SEQ ID No. 5). This hexameric sequence is repeated multiple times within the full length tropoelastin protein. […] We additionally assayed a 17 residue C-terminal fragment of the tropoelastin protein. This 17 amino acid residue is depicted in SEQ ID NO: 6 (IFPGGACLGKACGRKRK).
(§1) Briefly, 16 h before the assay, 70% confluent 75 cm^2 flasks of human melanoma A2058 cell (ATCC, passage 3-12) or human aortic endothelial cells (HAEC; Cambrex, passage 4-7) were kept in basal media (dMEM+0.1% BSA, or EBM-2+1% FCS, respectively). Cells were lifted with 0.25% Trypsin/1 mM EDTA, diluted in 0.5% BSA (dMEM) and washed 3 times in basal media (dMEM+0.1% BSA) or (EBM-2+0.1% FCS,) and recovered in suspension at working density (2×10^6/ml for A2058 or 1.5×10^6 HAEC) for 1 h at 37° C. (5% CO2). For migration-inhibition assays, the cells were preincubated during the recovery period for 30 minutes in 25 μg/ml anti-integrin antibodies (Chemicon, Temecula, Calif.) or control IgG (Jackson ImmunoResearch, Inc.). All migration assays were performed in triplicate in a 48-well Boyden chamber apparatus (NeuroProbe, Cabin John, Md.). The recovered cells were added to the bottom chambers in a volume of 30 μl. The wells were overlayed with an 8 μm-pore polycarbonate membrane (NeuroProbe, Cabin John, Md.) and coated with 100 μg/ml Rat tail collagen (Trevigen, Gaithersburg, Md.) for A2058 cells or acetylated 1% gelatin from porcine skin (Sigma, St. Louis, Mo.) for HAEC. The apparatus was assembled and stored inverted at 37° C. (5 CO2) for a 2 h adhesion-period. The apparatus was re-inverted and 52 μl of the chemoattractants, 10 mg/ml Fibronectin, 200 ng/ml Tropoelastin, 10 μM elastin-derived peptides; VGVAPG (SEQ ID No. 5), and IFPGGACLGKACGRKRK (SEQ ID No. 6 (Cterm peptide) or 0.1% BSA/dMEM (diluent, random migration control), were added to the upper chambers and the migration was allowed to proceed for 2 h in a humidified incubator at 37° C. (5% CO2). The membranes were then removed, fixed in methanol, stained with a Hema 3 stain set (Fisher Scientific, Pittsburgh, Pa.) and mounted migrated-side down to a 50×75 mm glass slide. Before 90% mounting medium (in xylenes) was applied, the non-migrated cells were removed from the exposed, non-migrated face of the membrane with a moistened swab. Readings represent the number of cells migrating through the membrane (the sum of two high power X 20 fields/well, averaged for each sextuplicate-well set).

[2] = system: A2058 human melanoma cells; assay: Boyden chamber migration assay, A2058 cells; format: cell-based; settings: FIG. 5
Protocol: as §1, with “The apparatus was re-inverted and 52 μl of the chemoattractants, 10 mg/ml Fibronectin, 200 ng/ml Tropoelastin, 10 μM elastin-derived peptides; VGVAPG (SEQ ID No. 5), and IFPGGACLGKACGRKRK (SEQ ID No. 6 (Cterm peptide) or 0.1% BSA/dMEM (diluent, random migration control), were added to the upper chambers and the migration was allowed to proceed for 2 h in a humidified incubator at 37° C. (5% CO2). The membranes were then removed, fixed in methanol, stained with a Hema 3 stain set (Fisher Scientific, Pittsburgh, Pa.) and mounted migrated-side down to a 50×75 mm glass slide. Before 90% mounting medium (in xylenes) was applied, the non-migrated cells were removed from the exposed, non-migrated face of the membrane with a moistened swab.” left out

[3] = system: endothelial progenitor cells; assay: Cell spreading on coated stainless steel disks (phalloidin/DAPI staining); format: cell-based, human; settings: Triton X-100 permeabilized, phalloidin and DAPI staining
Description: We also examined the appearance of the adherent endothelial cells.
Cell spreading was examined by permeabilizing the endothelial cells that had adhered to the coated metal surfaces with Triton X-100 and staining with phalloidin to highlight the actin cytoskeleton and DAPI to mark cell nuclei. […] Thus, stainless steel surfaces coated with either tropoelastin or anti-CD34 antibody would likely endothelialize more rapidly than would similar bare metal surfaces when intravascularly placed.
Adhesion assays on 6 mm stainless steel disks (Orbus Medical Technologies, Ft Lauderdale, Fla.) pre-coated with anti-CD34 antibody, tropoelastin, coating vehicle, or uncoated metal were performed in a similar fashion as described above, with the following modifications: 48-well plates were used to hold the disks during the assay period to facilitate manipulation of the disks and twice the volume of cell suspension was applied (200 μl/well). Exemplary amounts of total protein covalently attached to each disk were approximately 100 micrograms. Post-adhesion, the wells were washed twice in dPBS, using a swirling motion to dislodge non-specifically adhered cells. […]

B1: tropoelastin: recombinant human tropoelastin lacking native signal sequence, 10× His tag and Factor Xa site on N-terminus, 706 amino acid residues (SEQ ID NO: 4) (protein, listed as Homo sapiens)
chain: MGHHHHHHHHHHSSGGIEGRGGVPGAIPGGVPGGVFYPGAGLGALGGGALGPGGKPLKPVPGGLAGAGLGAGLGAFPAVTFPGALVPGGVADAAAAYKAAKAGAGLGGVPGVGGLGVSAGAVVPQPGAGVKPGKVPGVGLPGVYPGGVLPGARFPGVGVLPGVPTGAGVKPKAPGVGGAFAGIPGVGPFGGPQPGVPLGYPIKAPKLPGGYGLPYTTGKLPYGYGPGGVAGAAGKAGYPTGTGVGPQAAAAAAAKAAAKFGAGAAGVLPGVGGAGVPGVPGAIPGIGGIAGVGTPAAAAAAAAAAKAAKYGAAAGLVPGGPGFGPGVVGVPGAGVPGVGVPGAGIPVVPGAGIPGAAVPGVVSPEAAAKAAAKAAKYGARPGVGVGGIPTYGVGAGGFPGFGVGVGGIPGVAGVPGVGGVPGVGGVPGVGISPEAQAAAAAKAAKYGVGTPAAAAAKAAAKAAQFALLNLAGLVPGVGVAPGVGVAPGVGVAPGVGLAPGVGVAPGVGVAPGVGVAPGIGPGGVAAAAKSAAKVAAKAQLRAAAGLGAGIPGLGVGVGVPGLGVGAGVPGLGVGAGVPGFGAVPGALAAAKAAKYGAAVPGVLGGLGALGGVGIPGGVVGAGPAAAAAAAKAAAKAAQFGLVGAAGLGGLGVGGLGVPGVGGLGGIPPAAAAKAAKYGVAARPGFGLSPIFPGGACLGKACGRKRK
CHO cells
  adhesion of CHO cells to the coated substrate: do not adhere to tropoelastin
[1]
  level of HuAEC migration relative to comparator: comparable to that of fibronectin
[1]; 200 ng/ml Tropoelastin, 10 μM peptides, BSA control
  migration of HuAECs: promoted endothelial cell migration
[2]
  level of A2058 migration compared among tropoelastin and fragments: promoted migration of A2058 cell at comparable levels
[3]
  spreading of adherent cells across the surface of the coated disk: promoted spreading of the adherent cells across the surface of the device; also recorded: well spread cytoplasm and an organized actin cytoskeleton
